Test results published in publication PMC3436766, “Distinct and Contrasting Transcription Initiation Patterns at Mycobacterium tuberculosis Promoters”.

How the values were obtained:
[1] = target: T1, RNA polymerase holoenzyme with sigma A (RNAP-σA) (Mycobacterium smegmatis SM07, UniProt A0QSL8;P60281;A0QS66;A0QWT1;A0QW02 1-350;1-1169;1-1317;1-107;1-466); assay: EMSA; settings: protein: native; chain copies: 2;1;1;1;1; label: 5'-32P on one strand; blunt
[2] = target: T1, RNA polymerase holoenzyme with sigma A …; assay: EMSA; closed complex (KB), on ice 20 min; settings: protein: native; chain copies: 2;1;1;1;1; label: 5'-32P on one strand; blunt

B1: PgyrB1 (dsDNA)
DNA 1: GGTAAAAACGAGGCCGAGCACTCGGCCCTGGCGCCCGATCACGGTACAGTGGTGTGCGACCCCCTGCGGCGACTC
DNA 2: GAGTCGCCGCAGGGGGTCGCACACCACTGTACCGTGATCGGGCGCCAGGGCCGAGTGCTCGGCCTCGTTTTTACC
[1]
  Kd: 68 ± 12.2 x 10^7 M (as printed; exponent implausible, probably nM)
[2]
  Ka: 2.1 ± 0.03 10^7 M^-1
